Publication PMC9923667

Target: HPIV3 fusion (F) protein stabilized in the prefusion conformation (HPIV3 preF) (human parainfluenza virus type 3) (UniProt P06828)
Assay: cryo-EM structure

“HPIV3 fusion (F) protein stabilized in the prefusion conformation (HPIV3 preF) (from UniProt P06828 19-481) (natural protein)” was tested. Which stoichiometry N did it give?
Its stoichiometry N is 3.
